Measurements reported in article PMC11893775.
Non-standard residues stand in square brackets, D forms with d. No end group written: not given here.

Legend:
[1] = biological target: recombinant human furin lacking the trans-membrane domain and cytosolic tail (human) (UniProt P09958)
[2] = biological target: T1, recombinant kallikrein-8 (rKLK8) (UniProt O60259)
T1 sequence: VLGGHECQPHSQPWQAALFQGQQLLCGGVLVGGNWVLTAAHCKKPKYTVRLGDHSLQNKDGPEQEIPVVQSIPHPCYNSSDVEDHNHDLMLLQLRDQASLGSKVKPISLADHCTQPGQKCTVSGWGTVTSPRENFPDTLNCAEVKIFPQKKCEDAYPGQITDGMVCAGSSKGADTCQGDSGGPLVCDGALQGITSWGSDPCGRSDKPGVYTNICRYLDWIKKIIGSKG

UniProt P09958, sequence (P09958 108-715): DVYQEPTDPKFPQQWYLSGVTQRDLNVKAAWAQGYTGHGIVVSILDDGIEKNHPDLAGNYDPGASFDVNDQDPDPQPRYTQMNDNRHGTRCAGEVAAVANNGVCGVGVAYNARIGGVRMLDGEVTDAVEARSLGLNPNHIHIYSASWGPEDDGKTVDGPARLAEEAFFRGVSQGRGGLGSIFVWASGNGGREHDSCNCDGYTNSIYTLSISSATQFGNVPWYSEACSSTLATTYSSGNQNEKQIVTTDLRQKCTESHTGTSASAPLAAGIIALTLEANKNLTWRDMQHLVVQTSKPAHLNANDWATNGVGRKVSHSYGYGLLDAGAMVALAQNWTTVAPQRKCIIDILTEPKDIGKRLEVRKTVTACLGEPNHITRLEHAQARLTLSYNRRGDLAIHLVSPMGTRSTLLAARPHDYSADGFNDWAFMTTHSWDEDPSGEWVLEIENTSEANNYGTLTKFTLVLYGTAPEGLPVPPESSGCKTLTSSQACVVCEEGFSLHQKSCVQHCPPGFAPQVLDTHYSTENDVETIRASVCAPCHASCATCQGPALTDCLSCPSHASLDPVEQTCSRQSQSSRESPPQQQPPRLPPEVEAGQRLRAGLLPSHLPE

[dR][dR][dR][dR][dR][dR] [hexa-D-arginine]
IC50 of D6R for inhibition of the in vitro cleavage of the fluorogenic substrate Boc-RVRR-AMC by rFurin [1]: 0.78 µM | IC50 of D6R for inhibition of the in vitro cleavage of the fluorogenic substrate Boc-VPR-AMC by rKLK8 [2]: < 25 µM
